Assay results taken from patent US20220002389A1 (IMMUNO BIOLOGICAL LABORATORIES, published 2022).

Molecular target: HIV-1 BaL strain envelope protein (gp120) on BaL-infected CEM.NKR-CCR5 (NKR24) cells (HIV-1 BaL strain)
Assay: cell-based or functional assay

B1: Bcell-1C10 (1C10 antibody of B cell origin) (antibody, human IgG1, kappa, V domains shown)
VH: EVQLVESGGGVVQPGRSLRVSCVASGFMFSNYAMHWVRQTAGKGLEWVAIISNDGSDKYYADSVQGRFTVSRDNSQNTLFLQMSGLRPEDSGLYYCARDLDQTIPDLTAPAFEVWGQGTMVTVSS
VL: DIVMTQSPLSLAVTPGEPASISCRSSQSLLHSDGNNYLDWYLQKPGQSPQLLIYLTSNRASGVPDRFSGSGSGTDFTLKISRVEAEDVGVYFCMQSLQTWTFGQGTKVEIKR
  IC50 (50% inhibitory concentration) of infection of TZM-bl cells by BaL virus, luciferase RLU; 'Dose at Y = 50': 0.097 µg/mL

B2: CHO-1C10 (1C10 antibody produced in ExpiCHO-S cells) (antibody, human IgG1, kappa, V domains shown)
VH: EVQLVESGGGVVQPGRSLRVSCVASGFMFSNYAMHWVRQTAGKGLEWVAIISNDGSDKYYADSVQGRFTVSRDNSQNTLFLQMSGLRPEDSGLYYCARDLDQTIPDLTAPAFEVWGQGTMVTVSS
VL: DIVMTQSPLSLAVTPGEPASISCRSSQSLLHSDGNNYLDWYLQKPGQSPQLLIYLTSNRASGVPDRFSGSGSGTDFTLKISRVEAEDVGVYFCMQSLQTWTFGQGTKVEIKR
modifications: about 70.3% core fucose-added N-glycan
  IC50 (50% inhibitory concentration) of infection of TZM-bl cells by BaL virus, luciferase RLU; 'Dose at Y = 50': 0.0781 µg/mL
